Experimental data published in the DeepSol protein solubility set.

Test: soluble on expression in E. coli; label from the status in PepcDB or PDB records

Sequence | soluble on expression in E. coli
MIRVMLSQLSSVLNARLIGEDRAVSAVSTDSRAIPAEALFVALVGERFDAHDFASQAVTGGAVALLVERELDAECSQLVVADTKQALGQLGSWVHAQCQTPTVAITGSCGKTTVKEMVASILSQKGQVLYTQGNFNNDIGVPLTLLRSTTEDDYAVIELGANHVGEIAYTTALVKPDVALVNNVAAAHLEGFGSMDGVKRAKGEIYQGLQAGAVAIVNLDSNGGDYWKAVLADKTVKTFSATDHNADFYPRDVRLNALGIASFTLVTPVGEVGVELGIMGQHNVANALAAAALSLEMGASLAEIGQGLAHLSKVKGRVDMAQLRDDITLIDDSYNASVPAMKAAVELLGSFSAVRWLILGNMAELGDESLALHQQVGEHAAPFGFEFVLTYGKDAKVISDLCQGHHFATHQDMMTFIEQHIEQQQGRTQVLLVKGANSAGMSKIAAALKEKFA | not soluble
MISANKQFDIQLGDEIGKDFFTQDTVVCAFRNKEKTTDFVFTSGPIILICDGTTRRKMIKRRFKMEFDIKKVFFHSFIVTRNAEKLATENCGGPDTKHRDYLVVCGEHKLQFISLPDYHFYHYEIPFKLRNVFSCSTSLLVERFYDSSSEQTFHHHDTFHLYSLSGPFGELLPVIYKTSGYHPQWKFCWQSHRDEAGLVDAQQNYVVVYDQKEKTHRIYMARETQEQEVHAAIRYVEALRRPSDSTMFASSLAPNSAGRTTHFDPTLNSPAENVLSEVISSEIDSRSPFTPHLRSGFGHSTPNNPNAPGYPATLPTPNFEGNFFF | not soluble
MISAPGIGSGLDVSGIISKLMEIEQQPLTQLNTKEAKQQAQLSAFGSLKSVLSTFQDSVKALAKPALFNGYKATLADTTAATVSTSSSASAGTHDIEVQSLAQAQKIKSEAFATTDTVIGSGTLTIEFGTYNEDGTFTANAEKTAKTITIDPAKSTLADIRSAINEANAGVTASIVNDGSGNRLVISSKDSGLANALKISVNDTDGNHTDNAGLSKLAFDASTGGVSNMTETVAARNAVMVIDGIPVTKSSNTINDALEGVTFNLLKANPGTTTTLTVEKDKSNVEAAVNAFVKAYNDLEKTIGNLSRYDAANKQASVLTGDSTMRMIQNRMRAMLGGNQSAAGGINSLSELGISFQKDGTLALDNNKLSAVLNNPDKNIAAFFTTQGGDDTTSVEGFASRLSELIDGMTRSDGLISSRMDGINSTIKGIGKQREALEFRLESVEKRLRAQFTALDTMIASMNQTSNYLQQQLANLPKIGE | not soluble
MISRTFLLLFFVFSISKCEVQLGCTSPPLPDANGLCPDGYTLITAGGCCPDSDVYIISATTTTTTTTQAPTTTASSGSCQDKVNPKTGVSDCPGMKAYCNNPAYVSVMKDQCPKTCGYCSSSATTAGTCQDKINPSTGRSDCPGMAAYCNNPVYHDVMKDQCPKTCGYC | not soluble
MISSSLPSSNAASSSEGRITQAKDVQGFSQRSASGQTPLNQSAALSEQAVPSFRLAAQTFSSEERKEATTATTEENAAVDTTGMNVLLSATTPTETPDLAAQAQTLTQGMLNMAEKSVASFNKVNPLEIKGEAKTTSPAQANALLNTSPQQQDIQTSQTTSANARVNTSAVDFQALLNQPAQGQATTAPLNVQTSAPSAQAVSAATVAHAHTQGSEWAAVKVDTSAGKWGEQMMQVLHDRVTLQAQQSVQEAKIRLDPPDLGKLDLLVRVEGDRLSVQINANTAATREALMQVSERLRTELQEQNFVHVDVNVGADQGQERHQQQMNDEDTTIFAARESSAFQSNTTTNYSEHWLNTQA | not soluble
MISTNGITMQFGAKPLFENVSVKFGEGNRYGLIGANGSGKSTFMKILGGDLEQTAGEVAIENGVRLGKLRQDQFAYEDMRVLDVVMMGHTEMWAAMTERDAIYANPEATEDDYMKAAELEAKFAEYDGYTAEARAAELLSGVGISEDLHNAKMAEVAPGFKLRVLLAQALFSKPDVLLLDEPTNNLDINTIRWLEGVLNQYDSTMIIISHDRHFLNEVCTHMADLDYNTITIYPGNYDDYMLASAQSRERALKDNAKAKEKLQELQEFVARFSANKSKARQATSRLKQADKIKSEMVEVKPSTRQNPYIRFEADEKAKLHRQAVEVEKLAKRFETQLFKNLNFILEAGQRLAIIGPNGAGKSTLLKLLAGAYNPEYSDGLLPDEGTIKWAEKASVGYYPQDHENDFDVDMDLSEWMRQWGQEGDDEQVIRGTLGRLLFGSNDVVKKVKVLSGGEKGRMLYGKLLLLKPNVLVMDEPTNHMDMESIESLNMALEKYNGTLIFVSHDRQFVSSLATQIIELDGKGGYEHYLGDYESYLEKKGVA | not soluble
MITAYIALGSNLNTPVEQLHAALKAISQLSNTHLVTTSSFYKSKPLGPQDQPDYVNAVAKIETELSPLKLLDELQRIENEQGRVRLRRWGERTLDLDILLYGNEIIQNERLTIPHYDMHNREFVIVPLFEIASDLVLPNSQIITELVKQFADHKMIKLNP | soluble
MITLGFMSLSRQHEADYSAELAKRAPEFGIRFIRFTPFDISPDTLRVKASVYHSASSTWNETEMAIPDYIYDRCFYGKDSHSQKAKPIVEWLKKYPKTEFIGRGLPDKWTVLHDLQQHSVINPYIPETIKVSRYEQIHSFLSKEKACILKPAFGAGGRGVILLKLGKKNITATYHIGKDKQTKTFSNQTSFKTWCKKVLQHQYLLQPYLNIQDKEQYPCDIRLFMEKNEAGEWNTVGKAVRRGYKHGLLANLSGGSDALTFDSWFEDIPKKQQVVLLDDVFSITQSVPYYLDERYGPLFELGLDICLAKDGRIWILDINSKPGRKSILRVSPEQKEQLYTCPLKRCQYLFSEQSQKGVLPRES | not soluble
MITQSSLLTYPLAGCLNRLANKSSQVKQRLQTHANETVCFRIDSLASLSVTITQDGHFTTAAKDTQAAVILDIAAELIPRIASGEMAAFDKIIICGDPELADTLLYMGKIFQAGIEENLSSVMGDVLARRATLTGQELVRWHLGSIRNLSRALGEFLSEEQPVTASRNRFHQLASEVESLQRRILRLEKRITALVPSFSSIAGNLPRTGR | not soluble
MITSTNKEAYPNTLIVILGHDEGRSSFEEKEDVTRVTNDKGETIGFNFFNVDKLIDFDKLPNGPVKLSDDELEALNKKLAEVGFDDKLEYGKPTLVYGYVKTCEKHPDSDHLHVTTIEVGDGEEHQIVCGAPNIAQGQKVVVALPGTLMPNGAQIWPGKLRGVDSYGMICSARELGLPHAPQKRGIMVVPDSFEVGAEFEPTKCDELIASGEITLLEHHHHHH | soluble
MIVRFAGRRGVVSTCNLNGGYREDLRYAFNNSCGRDPDVIAKRSVGMRGKTMIEHYAALAEELGLPLDKTTGMGTAALIENTATSSRQYHGVTVMAVATAGIDVNGGRAGEPAAYNEFTQTDLIKPGTINVFLFIDASLDAGTLTRALVTATEAKSAALQELMANSMYSEDLATGSGTDSLIAICNKESEIVLQNSGKHVLLGEMIGQSVKEAITEALSRQTKMTPTRQASIEWQTKRYGITREAIVSECLRLYPHLKKEVVEAGIGGIDRDNRLVAAVAAIAHLCDQNRWQIISDKSMTCTAENILHTILSERGISEEANRKDIVCGQDAPAYRQVLSLCLHTLARILHNRIIHSSL | not soluble
MIYIGFYPKFNISGFSIGINTGVRFDVSSKLHYETSSASENINNEVKPRTYIRGTFDYSVFFKDNMAINVGLYIGYDWGFAWSDTYANADVVKNESFGNLDLGIQVGYRFGPKF | not soluble
MKAFDIMKASQIACCFEVGSFKPGNVHKNRDYDDIKYHHFISSGIAFGDVIHQACLEKNNIGNFIKKGVIESKKWSPTNANLGIIMLHMPIAIAASNLDKFSESALKKETEKIIKNTTVQDAIDVYRAIEIALAFVNAPENGPDLKSKDAKDELIEKNLTLYDVFKISSTWDSISNEWTENFKISYKGYNLIKEYYEKYNNINIAVTKTFINLLSNYPDTLIARKKGIDVSKMVSEKAKEVLNNFNEESVLEFDKFLSKEGNKLNPGTTADLIASSLLIFLLDRISNEKTILY | not soluble
MKAKITGEDDVRVGLHVTDNNGVKHKIEMEFNGEIKYHNQDGYPDKPKNRTPNGNAHVNQTCRYARYHVYQETEYTPLPPEENLPGIKKVKQAIADLSVKEFEAYFSDTYDQVLSNHPSVTPPVPHPESVPQNGYILYLIDVYLDDNDEIEAVSDIHLQYLDENGDKTQDWNDDPFPDRQPDARLQLFGKYVPSMDVFQEFVVYHLRCQLRDVYIGAGLEPPEKYRVLGRGDDDLTSRYHNDKVTIYDDYHLEEADIPGYELEFDYGFGELGKQSVINAKRKGIGAENPDDADSRLANPSQDGEEGLLETVSSVLRGSDTDQTET | not soluble
MKALTLKVFYENSDPNKSSSKQAKYLAIADALRKAIRERQIAPTEALPSARKLAQQLSVNRHTIMAALAELVAQGWVEVRERSGYRVVENLPIQGSRTINKVAKTPQSFDWKFRVKQTFAVTPKVKASEYPYNFSGGQPDIRKFPFDEFKSHFSQTCQRPKIDDLSYGDSRGEAELIEEIATYLRRVRSITDKELMICNGSQEALYMISQLLLQPGDKVAVEQLGYPPAWAAFERTGATLIAVKQDERGINPEHLAQVFAKGKVKLLYLTPLHQYPTTVSLDISRRMQIYQLAVQYGVAIVEDDYDHEFHYDSQPIAPMAADDPAGLVIYISTFSKLMFGGARIGYVVANNALIEQVAAYKMVMNHKCNVLVQQAVAKWMQQGGFEAHLRRMTRLYQKRRDFMVQQLRSFQDKGLPIHFEVPAGGMAIWLDTGKSIIGLKEKLLPQQVYLQTEVEFSRFNELPDDLPRTKYRFIRLGFAAMNEAEVTQGLDIVMNTLYGLVSE | not soluble
MKCRSKISLIAASLWLAAFSAQALEAKLKPEDLPLLVPEAQHATAAKRVTSRFTRSHYKQFNLDDQFSQAMFERYLEMLDYSRNIFTQADIDSFKAWSLQLDDQLKAGDNQIAYDLYNLSMEKRFERFQYALSLLDQEMTFDADESIELDRTKSPWPKDLKEINELWRQRVKYDALSLKLAGKEWPEIKETLDKRYNNAIKRLTQTKSEDVFQTYMNAFAREVDPHTSYLSPRNAEQFQSEMNLSLEGIGAVLQMTDDYTIIRSLVAGGPAALSKQLGEGDRIIGVGQEGEDVVDVVGWRLDDVVQLIKGPKGSKVKLLVLPEGKDAKSHVVTIVRDKIRLEDRAVKSEVIEKAGKKIGVLEVPSFYVGLAQDTEKLLAELKAKKVDGIIVDLRNNGGGALTEATALSGLFITSGPVVQVRDSYGRVNVNSDTDGSISYSGPMTVLINRYSASASEIFAAAMQDYGRAIILGENSFGKGTVQQHRSLNHIYDLFDKELGYVQYTIQKFYRIDGGSTQNKGVVPDIAYPTAIAPSETGESVEDNALPWDSIDKAKYERLNNFNTIIASLEAKHQQRVANDLEFGFIEQDIAKYRAEKDDNLLSLNEKVRKEESAKADEERLARINQRQKALGKSTYASLQDIPKDYEAPDAYLDESVNIMLDMISR | not soluble
MKDTTRNTYLAVDFGGGSGRVIAGSLLQGKLELEEIHRFTNRQVKLGNHVYWDFPALFEDMKTGLKLAAQKGYHVKGIGIDTWGVDFGLIDKKGNLLGNPVCYRDARTDGMPDKVFQILDAQKHYACTGIQVMPINTLFQLYSMQQNQDVLLEVAQRLLFMPDLFSYYLTGVANNEYCIASTSELLDARQRNWSMDTIRALGLPEHLFGEIILPGTVRGTLKEEIGRETGLGPVDIIAVGSHDTASAVAAVPATEGQVAFLSSGTWSLLGVEVDEPILTEEARLAQFTNEGGVGGHIRFLQNITGLWILQRLMSEWKLRGEEQSYDTILPQAADAEIDTIIPVDDAEFMNPENMETALLNYCRNHSLKVPGNKAEMVKCVLQSLAFKYREAVAQLNRCLPSPIHRLNIIGGGSQNKLLNQLTANALGIPVYAGPVEATAMGNILTQAMAKGEISSLREIREVVSHSVTPQVYYPEK | not soluble
